Assay results published in patent US20160168253A1 (Hoffmann-La Roche, published 2016).

Molecular target: T1, Aβ1-40 fibers (human)
T1 construct: Coated on Maxisorp plates for 3 days at 37 C to produce fibrillar Abeta; also called fibrillar Aβ; fibrillar Abeta
Assay: ELISA on plate-coated fibrillar Aβ(1-40), detection with anti-human-IgG-HRP
Description: Binding of fusion polypeptide to fibrillar Aβ was measured by an ELISA assay. Briefly, […] was coated at 7 μg/mL in PBS onto Maxisorp plates for 3 days at 37° C. to produce fibrillar Abeta, then dried for 3 h at RT. The plate was blocked with 1% Crotein C and 0.1% RSA in PBS (blocking buffer) for 1 h at RT, then washed once with wash buffer. Fusion polypeptides or controls were added at concentrations up to 100 nM in blocking buffer and incubated at 4° C. overnight. After 4 wash steps, constructs were detected by addition of anti-human-IgG-HRP (Jackson Immunoresearch) at 1:10,000 dilution in blocking buffer […], followed by 6 washes and incubation in TMB (Sigma). Absorbance was read out at 450 nm after stopping color development with 1 N HCl (see FIG. 1).

B1: Mab 31 = Gantenerumab (INN) (antibody, human IgG1, V domains shown)
VH: QVELVESGGGLVQPGGSLRLSCAASGFTFSSYAMSWVRQAPGKGLEWVSAINASGTRTYYADSVKGRFTISRDNSKNTLYLQMNSLRAEDTAVYYCARGKGNTHKPYGYVRYFDVWGQGTLVTVSS
VL: DIVLTQSPATLSLSPGERATLSCRASQSVSSSYLAWYQQKPGQAPRLLIYGASSRATGVPARFSGSGSGTDFTLTISSLEPEDFATYYCLQIYNMPITFGQGTKVEIKR
notes: Human IgG1 with kappa light chain; Id; No. 13; also called mAb31(HEK); naked anti-Aβ monoclonal antibody
binding result: binds
